Assays:
Assay in all cases: holdup assay
Parameters in all cases: key: below the threshold = too weak to quantify, mostly under pKd 3.1 to 4
[1] = molecular target: Inadl_3, Q8NI35
[2] = molecular target: FRMPD2_1, Q68DX3
[3] = molecular target: PICK1, Q9NRD5
[4] = molecular target: T1, APBA1_1, Q02410
T1 sequence (Q02410 651-752, limits assumed, looked up): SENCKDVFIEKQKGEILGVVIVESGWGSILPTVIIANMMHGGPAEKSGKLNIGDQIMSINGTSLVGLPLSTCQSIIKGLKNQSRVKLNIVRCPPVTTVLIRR

[5] = molecular target: FRMPD4, Q14CM0
Chain of FRMPD4, Q14CM0 (Q14CM0 67-160): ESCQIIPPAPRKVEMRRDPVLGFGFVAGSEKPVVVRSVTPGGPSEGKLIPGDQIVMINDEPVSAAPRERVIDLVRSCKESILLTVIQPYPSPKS

[6] = molecular target: T2, CARD11, Q9BXL7
T2 sequence (Q9BXL7 662-765, limits assumed, looked up): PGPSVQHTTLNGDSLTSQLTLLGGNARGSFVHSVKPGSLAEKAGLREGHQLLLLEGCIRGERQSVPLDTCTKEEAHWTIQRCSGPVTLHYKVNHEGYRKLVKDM

[7] = molecular target: DLG1_1, Q12959
[8] = molecular target: SCRIB_3, Q14160
Chain of SCRIB_3, Q14160 (Q14160 999-1103): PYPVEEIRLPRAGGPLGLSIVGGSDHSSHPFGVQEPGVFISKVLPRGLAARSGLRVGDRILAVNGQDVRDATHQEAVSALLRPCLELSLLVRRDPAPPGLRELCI

[9] = molecular target: T3, LIN7B, Q9HAP6
T3 sequence (Q9HAP6 88-185, limits assumed, looked up): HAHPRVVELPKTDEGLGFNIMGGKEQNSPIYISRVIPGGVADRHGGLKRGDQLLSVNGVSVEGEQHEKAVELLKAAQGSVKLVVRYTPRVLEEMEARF

[10] = molecular target: T4, DLG3_1, Q92796
T4 sequence (Q92796 125-227, limits assumed, looked up): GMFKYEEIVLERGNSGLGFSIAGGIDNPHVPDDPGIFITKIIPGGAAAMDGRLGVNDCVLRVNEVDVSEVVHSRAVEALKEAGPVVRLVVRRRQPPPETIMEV

[11] = molecular target: T5, DVL3, Q92997
T5 sequence (Q92997 244-331, limits assumed, looked up): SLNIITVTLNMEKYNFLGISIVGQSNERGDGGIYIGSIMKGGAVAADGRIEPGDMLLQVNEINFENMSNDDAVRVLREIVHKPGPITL

[12] = molecular target: T6, GRIP1_3, Q9Y3R0
T6 sequence (Q9Y3R0 247-346, limits assumed, looked up): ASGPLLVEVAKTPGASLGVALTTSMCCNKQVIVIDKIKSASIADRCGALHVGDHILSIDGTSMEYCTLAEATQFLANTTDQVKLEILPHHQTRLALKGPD

[13] = molecular target: T7, MPP7, Q5T2T1
T7 sequence (Q5T2T1 134-230, limits assumed, looked up): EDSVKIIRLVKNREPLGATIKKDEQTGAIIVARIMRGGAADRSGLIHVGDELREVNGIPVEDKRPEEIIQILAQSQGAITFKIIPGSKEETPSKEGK

[14] = molecular target: NOS1, P29475
Chain of NOS1, P29475 (P29475 9-101): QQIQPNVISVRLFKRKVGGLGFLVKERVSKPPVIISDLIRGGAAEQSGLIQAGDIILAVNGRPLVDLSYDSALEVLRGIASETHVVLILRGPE

[15] = molecular target: PARD3_3, Q8TEW0
Chain of PARD3_3, Q8TEW0 (Q8TEW0 582-685): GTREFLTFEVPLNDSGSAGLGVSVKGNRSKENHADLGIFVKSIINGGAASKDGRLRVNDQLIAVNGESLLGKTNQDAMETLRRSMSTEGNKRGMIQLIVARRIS

[16] = molecular target: T8, MPDZ_10, O75970
T8 sequence (O75970 1624-1722, limits assumed, looked up): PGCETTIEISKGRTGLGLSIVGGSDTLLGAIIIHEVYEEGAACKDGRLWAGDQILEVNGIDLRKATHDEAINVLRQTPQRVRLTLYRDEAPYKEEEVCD

[17] = molecular target: T9, MPP2, Q14168
T9 sequence (Q14168 180-250, limits assumed, looked up): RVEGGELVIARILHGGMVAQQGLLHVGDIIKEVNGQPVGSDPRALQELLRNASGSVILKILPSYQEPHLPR

[18] = molecular target: CASK, O14936
Chain of CASK, O14936 (O14936 487-570): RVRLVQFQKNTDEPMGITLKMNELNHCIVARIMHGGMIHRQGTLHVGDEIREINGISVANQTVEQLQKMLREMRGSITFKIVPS

[19] = molecular target: FRMPD2_2, Q68DX3
Chain of FRMPD2_2, Q68DX3 (Q68DX3 944-1038): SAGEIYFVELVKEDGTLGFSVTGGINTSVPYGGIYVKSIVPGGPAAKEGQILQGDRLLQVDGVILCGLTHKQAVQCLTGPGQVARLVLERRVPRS

[20] = molecular target: Inadl_9, Q8NI35
Chain of Inadl_9, Q8NI35 (Q8NI35 1530-1615): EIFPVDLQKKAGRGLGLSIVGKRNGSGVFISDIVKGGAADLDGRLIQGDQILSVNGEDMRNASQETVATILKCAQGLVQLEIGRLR

[21] = molecular target: T10, PDZD2_2, O15018
T10 sequence (O15018 329-429, limits assumed, looked up): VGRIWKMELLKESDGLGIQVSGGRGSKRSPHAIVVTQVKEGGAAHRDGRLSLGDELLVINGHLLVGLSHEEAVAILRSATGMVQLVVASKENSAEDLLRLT

[22] = molecular target: T11, GRIP1_2, Q9Y3R0
T11 sequence (Q9Y3R0 145-248, limits assumed, looked up): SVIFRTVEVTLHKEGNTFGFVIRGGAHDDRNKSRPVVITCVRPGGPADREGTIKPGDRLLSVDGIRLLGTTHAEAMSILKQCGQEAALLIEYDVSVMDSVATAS

[23] = molecular target: T12, TIAM2, Q8IVF5
T12 sequence (Q8IVF5 885-986, limits assumed, looked up): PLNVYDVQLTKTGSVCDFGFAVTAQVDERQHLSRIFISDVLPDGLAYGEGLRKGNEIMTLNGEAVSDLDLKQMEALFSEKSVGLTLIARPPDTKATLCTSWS

[24] = molecular target: T13, APBA2_2, Q99767
T13 sequence (Q99767 654-744, limits assumed, looked up): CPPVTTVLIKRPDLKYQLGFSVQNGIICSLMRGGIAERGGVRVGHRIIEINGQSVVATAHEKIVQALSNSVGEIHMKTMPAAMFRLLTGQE

[25] = molecular target: SCRIB_2, Q14160
Chain of SCRIB_2, Q14160 (Q14160 857-960): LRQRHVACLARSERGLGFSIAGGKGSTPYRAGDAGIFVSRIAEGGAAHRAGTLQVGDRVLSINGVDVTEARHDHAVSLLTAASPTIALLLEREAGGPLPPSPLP

[26] = plain residues with an end cap or a label only (N-terminal biotin on a linker: ttds)
[27] = plain residues with an end cap or a label only (N-terminal biotin on a linker: ahx)

Measured: pKd

Chain of Inadl_3, Q8NI35 (Q8NI35 359-469): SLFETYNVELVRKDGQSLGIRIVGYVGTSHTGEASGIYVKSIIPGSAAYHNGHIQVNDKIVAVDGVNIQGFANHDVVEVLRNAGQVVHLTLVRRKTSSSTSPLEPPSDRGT
Chain of FRMPD2_1, Q68DX3 (Q68DX3 770-861): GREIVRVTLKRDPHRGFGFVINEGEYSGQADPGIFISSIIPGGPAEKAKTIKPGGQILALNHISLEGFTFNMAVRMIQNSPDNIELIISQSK
Chain of PICK1, Q9NRD5 (Q9NRD5 17-115): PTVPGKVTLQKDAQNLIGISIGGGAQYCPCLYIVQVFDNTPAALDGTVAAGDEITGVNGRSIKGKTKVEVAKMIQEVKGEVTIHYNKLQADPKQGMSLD

IDNDTESTAL [ARHGAP17, Q68EM7]
3.61: [25]; [26]
4.11: [21]; [26]
below the threshold: [1]; [26] | [2]; [26] | [3]; [26] | [4]; [26] | [6]; [26] | [7]; [26] | [9]; [26] | [10]; [26] | [11]; [26] | [12]; [26] | [13]; [26] | [15]; [26] | [16]; [26] | [17]; [26] | [18]; [26] | [19]; [26] | [20]; [26] | [22]; [26] | [23]; [26] | [24]; [26]
3.95: [14]; [26]
4.45: [5]; [26]
4.57: [8]; [26]

STLTIFETAL [ABCC4, O15439]
4.31: [15]; [26]
3.65: [21]; [26]
4.44: [9]; [26]
4: [1]; [26]
5.59: [8]; [26]
4.46: [7]; [26]
4.04: [14]; [26]
3.56: [13]; [26]
3.77: [19]; [26]
4.64: [5]; [26]
below the threshold: [3]; [26] | [4]; [26] | [6]; [26] | [11]; [26] | [12]; [26] | [16]; [26] | [17]; [26] | [18]; [26] | [20]; [26] | [22]; [26] | [23]; [26] | [24]; [26]
4.92: [25]; [26]
3.84: [2]; [26] | [10]; [26]

QSARYRDTEL [TJP2, Q9UDY2]
4.65: [8]; [26]
3.68: [7]; [26]
3.9: [25]; [26]
3.75: [14]; [26]
below the threshold: [1]; [26] | [2]; [26] | [3]; [26] | [4]; [26] | [6]; [26] | [9]; [26] | [10]; [26] | [11]; [26] | [12]; [26] | [13]; [26] | [16]; [26] | [17]; [26] | [18]; [26] | [19]; [26] | [20]; [26] | [21]; [26] | [22]; [26] | [23]; [26] | [24]; [26]
3.7: [15]; [26]
4.35: [5]; [26]

TEAKLTETNA [MYO18A, Q92614]
below the threshold: [1]; [27] | [2]; [27] | [3]; [27] | [4]; [27] | [5]; [27] | [6]; [27] | [7]; [27] | [8]; [27] | [9]; [27] | [10]; [27] | [11]; [27] | [12]; [27] | [13]; [27] | [14]; [27] | [15]; [27] | [16]; [27] | [17]; [27] | [18]; [27] | [19]; [27] | [20]; [27] | [21]; [27] | [22]; [27] | [23]; [27] | [24]; [27] | [25]; [27]
